From paper PMC5916898, “Global profiling of protein–DNA and protein–nucleosome binding affinities using quantitative mass spectrometry”

Columns and labels:
[1] = target: SMARCB1-WHD (UniProt Q12824 1-113); assay: pull-down; Pull-down: 150 mM NaCl (or LiCl), 50 mM Tris pH 8, 0.25% NP-40, 1 mM TCEP, protease inhibitors, 4 C, 2 h; EMSA with lysate in same buffer, RT 15 min; FP in PBS, 25 C; conditions: protein: recombinant; label: 5' biotin; G4
[2] = target: T1, PHF10-DPF (UniProt Q8WUB8 379-481); assay: as above; conditions: protein: recombinant; tags: GST; label: 5' biotin; G4
T1 sequence: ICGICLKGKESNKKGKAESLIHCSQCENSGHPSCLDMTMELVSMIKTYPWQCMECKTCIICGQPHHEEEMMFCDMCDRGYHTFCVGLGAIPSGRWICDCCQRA

[3] = target: TGIF1 (Homo sapiens, UniProt Q15583); assay: pulldown; 150 mM NaCl, 50 mM Tris pH 8, 0.25% NP-40, 1 mM TCEP; 4 C, 2 h; 100 ug HeLa nuclear lysate; conditions: protein: extract; label: 5' biotin (strand 1)
[4] = target: ELF2 (Homo sapiens, UniProt Q15723); assay: as above; conditions: protein: extract; label: 5' biotin (strand 1)
[5] = target: T2, BBX (Homo sapiens, UniProt Q8WY36); assay: as above; conditions: protein: extract; label: 5' biotin (strand 1)
T2 sequence: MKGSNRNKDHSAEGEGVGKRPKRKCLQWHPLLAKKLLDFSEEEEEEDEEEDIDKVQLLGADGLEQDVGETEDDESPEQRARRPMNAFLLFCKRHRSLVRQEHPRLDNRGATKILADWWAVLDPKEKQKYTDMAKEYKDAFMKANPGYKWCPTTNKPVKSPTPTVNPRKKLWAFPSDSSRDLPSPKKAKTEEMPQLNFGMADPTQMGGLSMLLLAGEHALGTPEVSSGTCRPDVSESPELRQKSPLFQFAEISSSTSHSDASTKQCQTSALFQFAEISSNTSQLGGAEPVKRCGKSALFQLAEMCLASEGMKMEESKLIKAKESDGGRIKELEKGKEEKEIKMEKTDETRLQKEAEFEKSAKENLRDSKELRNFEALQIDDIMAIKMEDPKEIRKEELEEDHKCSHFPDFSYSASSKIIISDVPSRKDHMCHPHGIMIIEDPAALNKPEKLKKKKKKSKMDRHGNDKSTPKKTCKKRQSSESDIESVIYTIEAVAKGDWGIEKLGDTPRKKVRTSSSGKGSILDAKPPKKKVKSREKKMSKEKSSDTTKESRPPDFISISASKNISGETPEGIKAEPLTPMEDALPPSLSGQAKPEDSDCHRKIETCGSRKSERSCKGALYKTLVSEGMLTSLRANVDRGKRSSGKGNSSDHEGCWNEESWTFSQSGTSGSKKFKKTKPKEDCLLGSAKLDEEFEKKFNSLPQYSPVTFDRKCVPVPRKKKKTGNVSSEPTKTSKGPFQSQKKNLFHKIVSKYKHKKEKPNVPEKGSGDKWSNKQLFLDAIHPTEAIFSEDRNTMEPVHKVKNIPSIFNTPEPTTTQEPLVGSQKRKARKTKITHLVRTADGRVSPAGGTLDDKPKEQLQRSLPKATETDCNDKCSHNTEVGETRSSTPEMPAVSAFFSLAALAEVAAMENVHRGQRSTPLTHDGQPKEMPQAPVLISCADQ

[6] = target: T3, SIX2 (Homo sapiens, UniProt Q9NPC8); assay: as above; conditions: protein: extract; label: 5' biotin (strand 1)
T3 sequence: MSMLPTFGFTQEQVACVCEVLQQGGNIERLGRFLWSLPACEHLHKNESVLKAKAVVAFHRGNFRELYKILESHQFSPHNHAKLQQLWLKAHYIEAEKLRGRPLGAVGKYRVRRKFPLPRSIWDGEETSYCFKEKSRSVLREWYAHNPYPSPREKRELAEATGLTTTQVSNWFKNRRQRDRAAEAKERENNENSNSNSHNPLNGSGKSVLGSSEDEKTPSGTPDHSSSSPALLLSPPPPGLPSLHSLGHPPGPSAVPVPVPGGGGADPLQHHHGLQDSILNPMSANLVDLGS

[7] = target: RREB1 (Homo sapiens, UniProt Q92766); assay: as above; conditions: protein: extract; label: 5' biotin (strand 1)
[8] = target: TFAP2A (Homo sapiens, UniProt P05549); assay: as above; conditions: protein: extract; label: 5' biotin (strand 1)
[9] = target: T4, VEZF1 (Homo sapiens, UniProt Q14119); assay: as above; conditions: protein: extract; label: 5' biotin (strand 1)
T4 sequence: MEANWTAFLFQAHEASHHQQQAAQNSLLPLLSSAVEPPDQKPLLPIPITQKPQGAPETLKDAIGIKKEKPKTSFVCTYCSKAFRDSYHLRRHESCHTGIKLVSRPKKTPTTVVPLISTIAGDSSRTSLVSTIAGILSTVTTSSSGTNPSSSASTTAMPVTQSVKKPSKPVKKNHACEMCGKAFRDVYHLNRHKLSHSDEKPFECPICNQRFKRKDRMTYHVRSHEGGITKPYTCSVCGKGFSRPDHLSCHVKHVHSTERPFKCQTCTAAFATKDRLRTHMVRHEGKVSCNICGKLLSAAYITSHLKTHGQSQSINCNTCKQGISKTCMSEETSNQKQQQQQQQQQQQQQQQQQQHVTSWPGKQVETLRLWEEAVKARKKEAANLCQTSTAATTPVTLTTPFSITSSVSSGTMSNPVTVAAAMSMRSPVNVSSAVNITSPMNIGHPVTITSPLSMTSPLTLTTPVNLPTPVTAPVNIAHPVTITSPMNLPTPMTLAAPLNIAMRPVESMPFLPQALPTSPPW

[10] = target: ZBTB7A (Homo sapiens, UniProt O95365); assay: as above; conditions: protein: extract; label: 5' biotin (strand 1)
[11] = target: ZBTB7B (Homo sapiens, UniProt O15156); assay: as above; conditions: protein: extract; label: 5' biotin (strand 1)
[12] = target: DLX3 (Homo sapiens, UniProt O60479); assay: as above; conditions: protein: extract; label: 5' biotin (strand 1)
[13] = target: ZNF787 (Homo sapiens, UniProt Q6DD87); assay: as above; conditions: protein: extract; label: 5' biotin (strand 1)
[14] = target: ZFHX3 (Homo sapiens, UniProt Q15911); assay: as above; conditions: protein: extract; label: 5' biotin (strand 1)
[15] = target: GATA2 (Homo sapiens, UniProt P23769); assay: as above; conditions: protein: extract; label: 5' biotin (strand 1)
[16] = target: SP1 (Homo sapiens, UniProt P08047); assay: as above; conditions: protein: extract; label: 5' biotin (strand 1)
[17] = target: KLF16 (Homo sapiens, UniProt Q9BXK1); assay: as above; conditions: protein: extract; label: 5' biotin (strand 1)
KLF16, sequence (Q9BXK1 whole entry): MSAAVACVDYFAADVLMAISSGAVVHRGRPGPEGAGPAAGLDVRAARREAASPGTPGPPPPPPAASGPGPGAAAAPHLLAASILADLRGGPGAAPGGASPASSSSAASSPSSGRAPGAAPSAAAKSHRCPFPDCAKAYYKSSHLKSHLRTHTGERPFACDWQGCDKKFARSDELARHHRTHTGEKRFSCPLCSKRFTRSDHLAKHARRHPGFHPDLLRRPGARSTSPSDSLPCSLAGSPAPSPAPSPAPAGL

RREB1, sequence (Q92766 whole entry): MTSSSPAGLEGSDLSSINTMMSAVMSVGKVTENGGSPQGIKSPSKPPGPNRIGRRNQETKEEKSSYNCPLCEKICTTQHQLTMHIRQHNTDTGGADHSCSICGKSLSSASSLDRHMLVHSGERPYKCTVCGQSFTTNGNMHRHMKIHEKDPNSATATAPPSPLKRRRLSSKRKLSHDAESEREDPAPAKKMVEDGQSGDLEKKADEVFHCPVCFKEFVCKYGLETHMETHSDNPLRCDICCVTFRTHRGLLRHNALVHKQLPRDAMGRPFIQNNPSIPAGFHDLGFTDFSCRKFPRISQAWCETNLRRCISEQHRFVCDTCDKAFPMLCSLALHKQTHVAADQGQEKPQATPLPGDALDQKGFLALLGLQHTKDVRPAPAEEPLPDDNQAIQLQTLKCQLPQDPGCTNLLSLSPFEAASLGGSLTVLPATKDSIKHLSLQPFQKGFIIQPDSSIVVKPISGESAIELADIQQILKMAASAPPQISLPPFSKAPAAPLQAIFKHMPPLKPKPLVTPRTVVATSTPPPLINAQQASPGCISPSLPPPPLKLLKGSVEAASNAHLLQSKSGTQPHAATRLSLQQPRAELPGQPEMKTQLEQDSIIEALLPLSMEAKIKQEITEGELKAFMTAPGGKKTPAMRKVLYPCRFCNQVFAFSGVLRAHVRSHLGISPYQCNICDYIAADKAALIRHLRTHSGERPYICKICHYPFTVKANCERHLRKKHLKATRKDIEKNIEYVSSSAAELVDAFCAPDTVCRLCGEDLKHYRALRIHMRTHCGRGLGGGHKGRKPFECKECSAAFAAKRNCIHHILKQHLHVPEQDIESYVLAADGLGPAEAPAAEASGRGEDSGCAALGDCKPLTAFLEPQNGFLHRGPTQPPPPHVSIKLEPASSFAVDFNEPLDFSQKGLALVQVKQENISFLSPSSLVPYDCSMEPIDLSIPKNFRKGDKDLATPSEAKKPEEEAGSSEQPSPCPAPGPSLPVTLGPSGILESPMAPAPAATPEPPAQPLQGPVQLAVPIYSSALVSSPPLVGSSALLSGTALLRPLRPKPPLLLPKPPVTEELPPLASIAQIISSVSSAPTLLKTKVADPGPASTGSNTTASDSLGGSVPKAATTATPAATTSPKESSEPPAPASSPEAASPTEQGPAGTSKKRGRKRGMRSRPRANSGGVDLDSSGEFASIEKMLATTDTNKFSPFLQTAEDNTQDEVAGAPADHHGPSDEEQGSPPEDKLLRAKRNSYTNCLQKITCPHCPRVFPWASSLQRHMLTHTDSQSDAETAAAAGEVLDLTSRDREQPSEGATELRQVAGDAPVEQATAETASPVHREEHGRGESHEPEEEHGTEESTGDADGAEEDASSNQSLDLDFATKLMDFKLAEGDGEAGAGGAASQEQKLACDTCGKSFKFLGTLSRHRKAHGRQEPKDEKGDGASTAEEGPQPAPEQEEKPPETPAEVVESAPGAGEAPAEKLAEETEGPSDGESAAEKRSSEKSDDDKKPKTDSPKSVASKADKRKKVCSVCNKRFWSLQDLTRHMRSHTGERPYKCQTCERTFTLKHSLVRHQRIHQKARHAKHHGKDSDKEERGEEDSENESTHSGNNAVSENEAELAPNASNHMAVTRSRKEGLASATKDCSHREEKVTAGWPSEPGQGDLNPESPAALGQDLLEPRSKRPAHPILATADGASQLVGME
ZBTB7A, sequence (O95365 whole entry): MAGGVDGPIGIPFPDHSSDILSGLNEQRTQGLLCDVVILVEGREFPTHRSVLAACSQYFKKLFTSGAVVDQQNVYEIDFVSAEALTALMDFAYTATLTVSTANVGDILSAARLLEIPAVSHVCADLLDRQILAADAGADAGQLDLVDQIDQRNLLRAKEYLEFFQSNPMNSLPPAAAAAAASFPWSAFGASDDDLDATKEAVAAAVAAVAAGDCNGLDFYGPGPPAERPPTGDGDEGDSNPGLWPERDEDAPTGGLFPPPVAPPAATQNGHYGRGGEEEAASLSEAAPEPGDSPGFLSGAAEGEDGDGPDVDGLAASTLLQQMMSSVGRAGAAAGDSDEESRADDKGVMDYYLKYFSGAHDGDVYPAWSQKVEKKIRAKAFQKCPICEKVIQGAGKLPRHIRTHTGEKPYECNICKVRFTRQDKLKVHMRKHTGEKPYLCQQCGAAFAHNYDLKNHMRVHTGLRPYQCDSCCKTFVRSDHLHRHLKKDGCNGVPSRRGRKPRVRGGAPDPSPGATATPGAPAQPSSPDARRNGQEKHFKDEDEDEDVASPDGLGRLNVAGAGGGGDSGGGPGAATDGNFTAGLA
ZBTB7B, sequence (O15156 whole entry): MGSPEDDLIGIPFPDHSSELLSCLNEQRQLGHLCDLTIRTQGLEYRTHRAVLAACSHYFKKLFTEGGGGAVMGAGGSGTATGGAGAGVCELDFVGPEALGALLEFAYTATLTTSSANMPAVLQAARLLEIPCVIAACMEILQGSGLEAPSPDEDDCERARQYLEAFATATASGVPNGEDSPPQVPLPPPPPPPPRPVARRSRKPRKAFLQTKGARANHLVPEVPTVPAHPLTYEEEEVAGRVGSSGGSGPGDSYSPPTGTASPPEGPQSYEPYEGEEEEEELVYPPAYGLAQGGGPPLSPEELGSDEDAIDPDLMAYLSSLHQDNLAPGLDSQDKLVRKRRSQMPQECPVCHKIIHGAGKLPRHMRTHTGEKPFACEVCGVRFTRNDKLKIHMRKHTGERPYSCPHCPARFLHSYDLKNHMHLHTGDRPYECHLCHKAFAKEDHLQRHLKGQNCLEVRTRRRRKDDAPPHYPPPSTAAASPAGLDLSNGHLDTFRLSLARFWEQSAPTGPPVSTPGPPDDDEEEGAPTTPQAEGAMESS
SMARCB1-WHD, sequence (Q12824 1-113): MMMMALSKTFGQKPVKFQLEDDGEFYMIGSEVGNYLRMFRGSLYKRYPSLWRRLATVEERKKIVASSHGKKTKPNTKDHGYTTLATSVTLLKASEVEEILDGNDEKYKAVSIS
ZNF787, sequence (Q6DD87 whole entry): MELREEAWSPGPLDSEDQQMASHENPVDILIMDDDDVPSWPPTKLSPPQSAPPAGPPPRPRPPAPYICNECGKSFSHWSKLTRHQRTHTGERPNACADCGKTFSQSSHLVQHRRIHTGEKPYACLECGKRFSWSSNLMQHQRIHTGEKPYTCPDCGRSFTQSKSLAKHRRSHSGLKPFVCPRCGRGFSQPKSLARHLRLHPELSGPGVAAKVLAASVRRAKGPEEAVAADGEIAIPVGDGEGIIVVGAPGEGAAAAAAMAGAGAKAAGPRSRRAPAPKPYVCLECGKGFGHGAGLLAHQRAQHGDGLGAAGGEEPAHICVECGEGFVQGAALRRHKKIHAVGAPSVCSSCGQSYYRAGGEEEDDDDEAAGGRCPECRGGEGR
ELF2, sequence (Q15723 whole entry): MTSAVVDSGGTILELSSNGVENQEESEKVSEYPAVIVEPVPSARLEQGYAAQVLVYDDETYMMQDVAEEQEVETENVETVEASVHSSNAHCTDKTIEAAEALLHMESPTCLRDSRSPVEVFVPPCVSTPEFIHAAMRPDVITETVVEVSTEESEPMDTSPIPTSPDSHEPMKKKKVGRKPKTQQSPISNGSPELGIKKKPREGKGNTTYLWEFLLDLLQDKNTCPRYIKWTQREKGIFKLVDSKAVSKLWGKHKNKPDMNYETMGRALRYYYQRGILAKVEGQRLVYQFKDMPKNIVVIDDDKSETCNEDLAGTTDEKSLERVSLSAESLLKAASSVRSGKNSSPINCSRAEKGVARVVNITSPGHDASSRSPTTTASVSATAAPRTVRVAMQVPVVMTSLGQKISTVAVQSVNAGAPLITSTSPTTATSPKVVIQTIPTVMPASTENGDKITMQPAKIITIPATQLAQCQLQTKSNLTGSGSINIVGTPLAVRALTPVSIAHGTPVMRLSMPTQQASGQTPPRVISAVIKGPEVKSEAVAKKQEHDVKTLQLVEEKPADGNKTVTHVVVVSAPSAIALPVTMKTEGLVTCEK
DLX3, sequence (O60479 whole entry): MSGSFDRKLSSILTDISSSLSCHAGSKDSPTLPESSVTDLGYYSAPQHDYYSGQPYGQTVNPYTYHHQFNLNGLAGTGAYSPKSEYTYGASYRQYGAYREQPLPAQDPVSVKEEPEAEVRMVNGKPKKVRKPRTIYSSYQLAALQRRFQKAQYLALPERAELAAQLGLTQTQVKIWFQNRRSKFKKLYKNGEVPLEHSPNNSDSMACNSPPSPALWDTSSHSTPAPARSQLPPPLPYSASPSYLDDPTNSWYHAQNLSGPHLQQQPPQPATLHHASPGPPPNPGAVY
TFAP2A, sequence (P05549 whole entry): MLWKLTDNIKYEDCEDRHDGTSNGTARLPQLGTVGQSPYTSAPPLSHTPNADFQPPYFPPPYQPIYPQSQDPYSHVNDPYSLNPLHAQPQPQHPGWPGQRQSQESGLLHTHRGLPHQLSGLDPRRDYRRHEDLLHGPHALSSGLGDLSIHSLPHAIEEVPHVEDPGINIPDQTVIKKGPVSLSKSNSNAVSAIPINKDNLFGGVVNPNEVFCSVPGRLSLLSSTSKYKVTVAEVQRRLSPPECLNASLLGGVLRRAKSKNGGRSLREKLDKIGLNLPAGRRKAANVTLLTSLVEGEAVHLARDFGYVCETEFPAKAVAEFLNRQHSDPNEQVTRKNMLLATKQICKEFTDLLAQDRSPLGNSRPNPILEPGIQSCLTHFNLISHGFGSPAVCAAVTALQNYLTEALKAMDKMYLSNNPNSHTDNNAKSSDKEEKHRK

B1: mycG4 (Pu27) (structured_DNA)
DNA: TGGGGAGGGTGGGGAGGGTGGGGAAGG
[1]
  binding result: binds
[2]
  binding result: no binding

B2: AP-1 (dsDNA)
DNA 1: AGTCGGCTAGCTGACTCAGGATGTCC
DNA 2: GGACATCCTGAGTCAGCTAGCCGACT
[3]
  apparent K (half saturation): 322 nM
[4]
  apparent K (half saturation): 205 nM
[5]
  apparent K (half saturation): 308 nM
[6]
  apparent K (half saturation): 59.9 nM
[7]
  apparent K (half saturation): 317 nM
[8]
  apparent K (half saturation): 363 nM
[9]
  apparent K (half saturation): 255 nM

B3: E-box (dsDNA)
DNA 1: GGAAGCAGACCACGTGGTCTGCTTCC
DNA 2: GGAAGCAGACCACGTGGTCTGCTTCC
[10]
  apparent K (half saturation): 404 nM
[11]
  apparent K (half saturation): 405 nM

B4: NF-Y (dsDNA)
DNA 1: ATTGACCAATCAGAGGTAGGATGAT
DNA 2: ATCATCCTACCTCTGATTGGTCAAT
[12]
  apparent K (half saturation): 52.9 nM
[13]
  apparent K (half saturation): 394 nM
[14]
  apparent K (half saturation): 56.9 nM
[15]
  apparent K (half saturation): 126 nM
[7]
  apparent K (half saturation): 283 nM
[9]
  apparent K (half saturation): 249 nM
[16]
  apparent K (half saturation): 185 nM
[17]
  apparent K (half saturation): 200 nM
